# Substitutions are numbered along the chain they refer to.
# B1: anti-c-fms hybridoma antibody 1.143 (antibody, IgG1, V domains shown)
# VH: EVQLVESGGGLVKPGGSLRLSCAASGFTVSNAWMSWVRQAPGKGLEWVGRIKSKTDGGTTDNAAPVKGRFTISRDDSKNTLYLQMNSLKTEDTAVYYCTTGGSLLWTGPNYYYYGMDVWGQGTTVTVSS
# VL: DIQMTQSPSSLSASVGDRVTITCQASQDINNYLNWYQQKPGKAPKLLIYDTSNLEPGVPSRFSGSGSGTDFTFTISSLQPEDIATYYCQQYDNLLTFGQGTRLEIK
# notes: Hybridoma IgG1 (cohort 1); also called 1.143.2; 1.143.1
# B2: anti-c-fms hybridoma antibody 1.64 (antibody, IgG1, V domains shown)
# VH: EVQLVESGGGLVQPGGSLRLSCAASGFTFSSYDMHWVRQATGKGLEWVSGIGTAGDTYYPGSVKGRFNISRENAKNSLYLQMNSLRAGDTAVYYCAREGSWYGFDYWGQGTLVTVSS
# VL: EIVLTQSPGTLSLSPGERATLSCRASQSVSSGYLAYLAWYQQKPGQAPRLLIYGASSTATGIPDRFSGSGSGTDFTLTISRLEPEDFAVYYCQQYGSSPITFGQGTRLEIK
# notes: Hybridoma IgG1 (cohort 1); also called 1.64.1; 1.64.2
# B3: anti-c-fms hybridoma antibody 1.109 (antibody, V domains shown)
# VH: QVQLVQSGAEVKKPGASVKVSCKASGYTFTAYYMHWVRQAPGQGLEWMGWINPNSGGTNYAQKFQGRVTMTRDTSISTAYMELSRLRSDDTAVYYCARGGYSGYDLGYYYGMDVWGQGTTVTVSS
# VL: DIQMTQSPSSLSASVGDRVTITCQASQNISNFLDWYQQKPGKAPNLLIYDASDLDPGVPSRFSGSGSGTDFTFTISSLQPEDIATYYCQQYVSLPLTFGGGTKVEIK
# notes: Hybridoma IgG1 (cohort 1)
# B4: anti-c-fms hybridoma antibody 1.66 (antibody, IgG1, V domains shown)
# VH: QVQLVESGGGVVQPGRSLRLSCAASGFTFSSYGMHWVRQAPGKGLEWVAVIWYDGSNEYYADSVKGRFTISRDNSKSTLYLQMNSLRAEDTAVYYCAHSSGNYYDMDVWGQGTTVTVSS
# VL: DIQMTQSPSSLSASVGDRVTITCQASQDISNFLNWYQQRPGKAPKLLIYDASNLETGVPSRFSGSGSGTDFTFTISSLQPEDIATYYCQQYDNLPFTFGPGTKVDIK
# notes: Hybridoma IgG1 (cohort 1); also called 1.66.1; 1.66.2
# B5: anti-c-fms hybridoma antibody 1.134 (antibody, IgG1, V domains shown)
# VH: B4 VH with E58K, S77N, H98S, G101W, N102S, D105G
# VL: DIQMTQSPSSLSASVGDRVTITCQASQDINNYLNWYQQKPGKAPKLLIYDASNLEIGVPSRFSGSGSGTDFIFTISSLQPEDIATYYCQQYDNFPFTFGGGTKVEIK
# notes: Hybridoma IgG1 (cohort 1); also called 1.134.1
# B6: anti-c-fms hybridoma antibody 2.508 (antibody, IgG2, V domains shown)
# VH: QVQLVQSGAEVKKPGASVKVSCKVSGYTLTELSMHWVRQAPGKGLEWMGGFDPEDGETIYAQKFQGRVTMTEDTSTDTAYMELSSLRSEDTAVYYCATAGLEIRWFDPWGQGTLVTVSS
# VL: DIVMTQSPLSLPVTPGEPASISCRSSQSLLHSNGYNYLDWYLQKPGQSPQFLIYLGSIRASGVPDRFSGSGSGTDFALTISRVEAEDVGVYYCMQALQTPRTFGQGTKVEIK
# notes: Hybridoma IgG2 (cohort 2); also called 2.508.1; 2.508.2
# B7: anti-c-fms hybridoma antibody 2.534 (antibody, IgG2, V domains shown)
# VH: QVQLQESGPGLVKPSQTLSLTCTVSGGSISSGGYYWSWIRQHPGKGLEWIGYISYSGDTYYNPSLKSRLTISVDTSKHQFSLRLSSVTSADTAVYYCASLDLYGDYFDYWGQGTLVTVSS
# VL: EIVLTQSPDFQSVTPKEKVTITCRASQYIGSSLHWYQQTPDQSPKLLINYVSQSFSGVPSRFSGSGSGTDFTLTINSLEAEDAATYYCHQSSSLPFTFGPGTKVDIK
# notes: Hybridoma IgG2 (cohort 2); also called 2.534.1; 2.534.2
# B8: anti-c-fms hybridoma antibody 1.42 (antibody, IgG1, V domains shown)
# VH: QVQLVQSGAEVKKPGASVKVSCKASGYTFTSYGISWVRQAPGQGLEWMGWISAYNGNTNYAQKLQGRVTMTTDTSTSTAYMELRSLRSDDTAVYYCARESWFGEVFFDYWGQGTLVTVSS
# VL: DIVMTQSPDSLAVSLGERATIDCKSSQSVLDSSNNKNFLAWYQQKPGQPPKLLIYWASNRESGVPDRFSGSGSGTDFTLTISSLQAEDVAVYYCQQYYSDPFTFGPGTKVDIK
# notes: Hybridoma IgG1 (cohort 1); also called 1.42.3
# B9: anti-c-fms hybridoma antibody 1.2 (antibody, V domains shown)
# VH: B8 VH
# VL: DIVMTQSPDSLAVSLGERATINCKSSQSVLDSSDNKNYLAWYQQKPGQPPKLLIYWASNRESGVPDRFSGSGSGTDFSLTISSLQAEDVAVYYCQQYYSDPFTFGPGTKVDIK
# notes: Hybridoma IgG1 (cohort 1); also called 1.2.1
# B10: anti-c-fms hybridoma antibody 1.30 (antibody, IgG1, V domains shown)
# VH: B8 VH
# VL: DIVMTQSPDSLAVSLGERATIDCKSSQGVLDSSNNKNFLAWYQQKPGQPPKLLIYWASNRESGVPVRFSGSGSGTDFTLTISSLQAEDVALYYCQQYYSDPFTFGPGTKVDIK
# notes: Hybridoma IgG1 (cohort 1); also called 1.30.2; 1.30.3
# B11: anti-c-fms hybridoma antibody 1.16 (antibody, IgG1, V domains shown)
# VH: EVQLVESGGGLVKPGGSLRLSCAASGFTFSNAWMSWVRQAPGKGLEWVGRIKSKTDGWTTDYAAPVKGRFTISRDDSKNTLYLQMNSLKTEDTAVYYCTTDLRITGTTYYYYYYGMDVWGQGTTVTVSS
# VL: B1 VL with N30S, L46F, T51A, P56T, L95I
# notes: Hybridoma IgG1 (cohort 1)
# B12: anti-c-fms hybridoma antibody 2.65 (antibody, IgG2, V domains shown)
# VH: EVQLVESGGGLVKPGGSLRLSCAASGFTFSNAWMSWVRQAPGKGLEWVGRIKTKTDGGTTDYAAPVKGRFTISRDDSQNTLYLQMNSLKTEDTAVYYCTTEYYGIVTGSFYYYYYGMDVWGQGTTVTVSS
# VL: B1 VL with T51A, P56T, N93D, Q99G, R102K, L103V
# notes: Hybridoma IgG2 (cohort 2); also called 2.65.2
# B13: anti-c-fms hybridoma antibody 1.33.1.1 (antibody, IgG1, V domains shown)
# VH: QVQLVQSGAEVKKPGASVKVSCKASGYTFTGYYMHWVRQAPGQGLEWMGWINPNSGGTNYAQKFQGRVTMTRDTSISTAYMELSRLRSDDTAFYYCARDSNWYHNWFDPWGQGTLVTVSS
# VL: DIQMTQSPSSLSASVGDRVTITCRASQSISDYLNWYQQKPGKAPNLLIYAASSLQSGVPSRFSGSGSGTDFTLTISSLQPEDFATYFCQQTYSDPFTFGPGTKVDIK
# notes: Hybridoma IgG1 (cohort 1)
# B14: anti-c-fms hybridoma antibody 1.72 (antibody, IgG1, V domains shown)
# VH: EVQLVESGGGLVEPGGSLRLSCAASGFTFSTAWMSWVRQAPGKGLEWVGRIKSKTDGGTTDYAAPVKGRFTISRDDSKNTLYLQMNSLKNEDTAVYYCTTEGPYSNYGYYYYGVDVWGQGTTVTVSS
# VL: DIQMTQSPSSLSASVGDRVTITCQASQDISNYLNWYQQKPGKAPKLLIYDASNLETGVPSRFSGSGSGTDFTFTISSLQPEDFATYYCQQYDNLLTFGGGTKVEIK
# notes: Hybridoma IgG1 (cohort 1); also called 1.72.2
# B15: anti-c-fms hybridoma antibody 2.369 (antibody, IgG2, V domains shown)
# VH: QVQLVQSGAEVKKPGASVKVSCKVSGYTLTELSMHWVRQAPGKGLEWMGGFDPEDGETIYAQKFQGRVTMTEDTSTDTAYMELSSLRSEDTAVYYCATRAGTTLAYYYYAMDVWGQGTTVTVSS
# VL: DIQMTQSPSSLSASVGDRVTITCRASQSISRYLNWYQQKPGKAPNLLIHAASSLQSGVPSRFSGSGSGTDFTLTISSLQPEDFATYYCQQSYITPPSFGQGTKLEIK
# notes: Hybridoma IgG2 (cohort 2); also called 2.369.3
# B16: anti-c-fms hybridoma antibody 1.13 (antibody, V domains shown)
# VH: QVQLQESGPGLVKPSETLSLTCTVSGGSVSSGGYYWSWIRQPPGKGLEWIGYIYYSGSTNYNPSLKSRVTISVDTSKNQFSLKLSSVTAADTAVYYCAAGIAATGTLFDCWGQGTLVTVSS
# VL: B5 VL with N30S, I56T, I72T, T74I, Y91F, F94L, F96P, I106S
# notes: Hybridoma IgG1 (cohort 1)
# B17: anti-c-fms hybridoma antibody 1.90 (antibody, IgG1, V domains shown)
# VH: B4 VH with E58K, S77N, H98S, G101S, Y103F
# VL: B5 VL with N30S, I56T, I72T, Q90R, N93D, F94L, F96I, G100Q, K103R, V104L
# notes: Hybridoma IgG1 (cohort 1); also called 1.90.2
# B18: anti-c-fms hybridoma antibody 2.131 (antibody, IgG2, V domains shown)
# VH: QVQLQESGPGLVKPSETLSLTCTVSGGSISNYYWSWIRQSAGKGLEWIGRIYTSGSTHYNPSLKSRIIMSVDTSKNQFSLKLSSVTAADTAVYYCARDRVFYGMDVWGQGTTVTVSS
# VL: DIQMTQSPSSLSASVGDRVTITCRASQGFSNYLAWYQQKPGKVPKLLIYAASTLQSGVPSRFSGSGSGTDFTLTISSLQPEDVATYYCQKYNSAPLTFGGGTKVEIK
# notes: Hybridoma IgG2 (cohort 2); also called 2.131.2
# B19: anti-c-fms hybridoma antibody 1.131 (antibody, IgG1, V domains shown)
# VH: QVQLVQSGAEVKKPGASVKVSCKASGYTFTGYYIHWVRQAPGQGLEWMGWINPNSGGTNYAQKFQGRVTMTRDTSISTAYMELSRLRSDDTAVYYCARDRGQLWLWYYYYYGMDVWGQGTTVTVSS
# VL: DNVMTQTPLSLSVTPGQPASISCKSSQSLLHSDGKTYLYWYLQKPGQPPQLLIYEASNRFSGVPDRFSGSGSGTDFTLKISRVEAEDVGVYYCMQSIQLPLTFGGGTKVEIK
# notes: Hybridoma IgG1 (cohort 1); also called 1.131.1
# B20: anti-c-fms hybridoma antibody 2.550 (antibody, IgG2, V domains shown)
# VH: QVQLVQSGAEVKKPGASVKVSCKASGYTLTSYGISWVRQAPGQGLEWMGWISAYNGNPNYAQKFQGRVTMTTDTSTSTAYMELRSLRSDDTAVYYCARDQGLLGFGELEGLFDYWGQGTLVTVSS
# VL: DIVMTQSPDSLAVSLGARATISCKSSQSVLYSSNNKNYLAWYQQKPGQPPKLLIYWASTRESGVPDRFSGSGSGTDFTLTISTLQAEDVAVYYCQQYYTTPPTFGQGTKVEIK
# notes: Hybridoma IgG2 (cohort 2)
# Target: T1, human c-fms, full length, on cells (human, UniProt P07333 20-972)
# Assay: cell-based or functional assay
# T1 sequence (P07333 20-972): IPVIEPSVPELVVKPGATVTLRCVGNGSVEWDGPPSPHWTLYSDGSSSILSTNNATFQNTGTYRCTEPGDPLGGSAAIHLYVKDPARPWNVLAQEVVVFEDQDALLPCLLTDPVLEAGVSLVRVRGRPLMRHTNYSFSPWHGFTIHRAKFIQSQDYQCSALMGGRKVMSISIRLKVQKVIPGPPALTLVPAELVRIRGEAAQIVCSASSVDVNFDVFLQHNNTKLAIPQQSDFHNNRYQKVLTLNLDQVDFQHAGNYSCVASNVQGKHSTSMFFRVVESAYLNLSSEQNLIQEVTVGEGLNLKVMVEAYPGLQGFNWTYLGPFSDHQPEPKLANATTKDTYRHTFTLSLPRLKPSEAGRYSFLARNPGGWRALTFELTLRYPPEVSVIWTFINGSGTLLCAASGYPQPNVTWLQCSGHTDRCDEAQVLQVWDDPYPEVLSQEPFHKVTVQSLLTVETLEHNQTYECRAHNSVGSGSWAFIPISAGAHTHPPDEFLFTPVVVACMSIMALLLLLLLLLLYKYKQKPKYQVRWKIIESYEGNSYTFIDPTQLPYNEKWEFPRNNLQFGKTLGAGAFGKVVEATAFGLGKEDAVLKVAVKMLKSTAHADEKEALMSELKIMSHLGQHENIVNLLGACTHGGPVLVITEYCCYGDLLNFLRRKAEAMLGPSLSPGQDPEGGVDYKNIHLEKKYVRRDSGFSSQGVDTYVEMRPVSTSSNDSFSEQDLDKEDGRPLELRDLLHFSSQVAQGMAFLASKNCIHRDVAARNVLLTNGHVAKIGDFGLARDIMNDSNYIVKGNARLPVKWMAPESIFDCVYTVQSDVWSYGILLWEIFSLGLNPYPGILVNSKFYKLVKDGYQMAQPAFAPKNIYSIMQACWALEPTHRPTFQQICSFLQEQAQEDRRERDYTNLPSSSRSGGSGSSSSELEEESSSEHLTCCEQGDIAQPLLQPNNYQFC
AML-5 bioassay IC50,Human CD14+ monocytes bioassay IC50,Binder
0.1 nM,,B1
0.004 nM,0.013 nM,B2
0.005 nM,0.02 nM,B3
0.027 nM,0.067 nM,B4
0.007 nM,< 0.007 nM,B5
0.02 nM,0.133 nM,B6
0.02 nM,0.047 nM,B7
0.02 nM,0.067 nM,B8
0.006 nM,< 0.007 nM,B9
0.04 nM,0.067 nM,B10

# Target: T2, cynomolgus monkey c-fms on primary bone marrow cells (cynomolgus monkey)
# Assay: cell-based or functional assay
row,Cynomolgus bone marrow bioassay IC50,Binder
1,0.36 nM,B1
2,0.073 nM,B3
3,0.047 nM,B4
4,0.04 nM,B5
5,0.2 nM,B8
6,0.04 nM,B9
7,0.267 nM,B10

# Target: T1, human c-fms, full length, on cells
# Assay: cell-based or functional assay
# Remark: another data set of the same source
AML-5 bioassay IC50,Human CD14+ monocytes bioassay IC50,Binder
15 ng/mL,,B1
0.6 ng/mL,2 ng/mL,B2
0.7 ng/mL,3 ng/mL,B3
4 ng/mL,10 ng/mL,B4
1 ng/mL,< 1 ng/mL,B5
5 ng/mL,20 ng/mL,B6
3 ng/mL,7 ng/mL,B7
3 ng/mL,10 ng/mL,B8
0.9 ng/mL,< 1 ng/mL,B9
6 ng/mL,10 ng/mL,B10

# Target: T2, cynomolgus monkey c-fms on primary bone …
# Assay: cell-based or functional assay
# Remark: another data set of the same source
row,Cynomolgus bone marrow bioassay IC50,Binder
1,54 ng/mL,B1
2,11 ng/mL,B3
3,7 ng/mL,B4
4,6 ng/mL,B5
5,6 ng/mL,B9
6,10 ng/mL,B10

# Target: T3, monomeric human c-fms (residues 1-512)-pHis (human, UniProt P07333 20-512)
# T3 construct: Construct stated as residues 1-512; signal stated as amino acids 1-19 and left out; also called human c-fms (1-512).pHIS; monomeric c-fms
# Assay: Biacore, low resolution; hybridoma mAb captured on anti-human IgG, monomeric c-fms-pHis analyte at 125 nM
# Description: Anti-human IgG was immobilized on all four flow cells of a sensor chip using amine coupling. Crude hybridoma samples were diluted into halves and captured on the anti-IgG surface. […] Sequence lineage analyses were also performed on the 29 hybridomas (see, FIG. 2).
# T3 sequence (P07333 20-512): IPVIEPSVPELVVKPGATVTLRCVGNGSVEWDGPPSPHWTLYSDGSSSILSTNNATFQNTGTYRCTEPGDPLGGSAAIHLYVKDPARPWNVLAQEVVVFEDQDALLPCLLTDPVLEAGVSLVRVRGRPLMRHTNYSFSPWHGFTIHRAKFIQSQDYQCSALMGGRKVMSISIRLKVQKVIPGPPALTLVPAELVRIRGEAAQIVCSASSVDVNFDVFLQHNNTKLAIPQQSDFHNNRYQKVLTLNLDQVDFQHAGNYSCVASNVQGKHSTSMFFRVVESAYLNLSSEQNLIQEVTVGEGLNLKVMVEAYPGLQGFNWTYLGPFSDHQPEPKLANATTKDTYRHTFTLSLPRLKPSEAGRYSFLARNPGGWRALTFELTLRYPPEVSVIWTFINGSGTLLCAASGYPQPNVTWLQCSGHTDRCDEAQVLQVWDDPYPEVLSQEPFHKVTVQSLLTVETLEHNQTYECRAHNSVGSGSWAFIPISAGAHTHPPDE
Kd,koff,kon,Binder
10 nM,0.000559 s⁻¹,55000 M⁻¹ s⁻¹,B1
23 nM,0.00296 s⁻¹,129000 M⁻¹ s⁻¹,B11
9.5 nM,0.0016 s⁻¹,168000 M⁻¹ s⁻¹,B12
2.5 nM,0.00064 s⁻¹,255000 M⁻¹ s⁻¹,B2
0.1 nM,4.36e-05 s⁻¹,385000 M⁻¹ s⁻¹,B3
1.2 nM,0.000116 s⁻¹,98900 M⁻¹ s⁻¹,B13
5.5 nM,0.000568 s⁻¹,103000 M⁻¹ s⁻¹,B14
14 nM,0.00138 s⁻¹,100000 M⁻¹ s⁻¹,B15
6.4 nM,0.000773 s⁻¹,120000 M⁻¹ s⁻¹,B16
23 nM,0.0055 s⁻¹,239000 M⁻¹ s⁻¹,B4
4.6 nM,0.000703 s⁻¹,153000 M⁻¹ s⁻¹,B5
10 nM,0.002 s⁻¹,193000 M⁻¹ s⁻¹,B17
0.7 nM,5.28e-05 s⁻¹,74900 M⁻¹ s⁻¹,B6
≤ 0.2 nM,≤ 1e-05 s⁻¹,43000 M⁻¹ s⁻¹,B18
43 nM,0.015 s⁻¹,345000 M⁻¹ s⁻¹,B7
1.6 nM,0.00107 s⁻¹,660000 M⁻¹ s⁻¹,B8
1.4 nM,0.00113 s⁻¹,817000 M⁻¹ s⁻¹,B9
3.4 nM,0.0014 s⁻¹,406000 M⁻¹ s⁻¹,B10
41 nM,0.00215 s⁻¹,53100 M⁻¹ s⁻¹,B19
24 nM,0.00724 s⁻¹,300000 M⁻¹ s⁻¹,B20

# From US20090155164A1 (Amgen, published 2009)
